Data taken from paper PMC2935386, “Dissecting the Relation between a Nuclear Receptor and GATA: Binding Affinity Studies of Thyroid Hormone Receptor and GATA2 on TSHβ Promoter”.

What was measured:
[1] = biological target: GATA2-Zf;TRβ1 DBD-LBD (TR DL, TRβ1ΔAB) (;human, UniProt P23769;P10828 291-412;102-461, |); experiment: fluorescence anisotropy; T3; Hill n 1±0.2; Fluorescence anisotropy: 10 nM DNA, 20 mM Hepes pH 8.0, 50 mM NaCl, 1 mM MgCl2, 3 mM DTT, 5% glycerol, 10°C; agarose gel 1.3% in 0.5x TBE; conditions: protein: recombinant;recombinant; tags: His, thrombin treated;His (pET28a); copies: 1;1; label: 5' fluorescein (FITC) on forward strand; blunt
[2] = biological target: T1, TRβ1 DBD-LBD (TR DL, TRβ1ΔAB);RXRα1 DBD-LBD (RXR DL, RXRα1ΔAB) (human;, UniProt P10828;P19793 102-461;126-462, |); experiment: fluorescence anisotropy; T3; Hill n 1.8±0.1; Fluorescence anisotropy: 10 nM DNA, 20 mM Hepes pH 8.0, 50 mM NaCl, 1 mM MgCl2, 3 mM DTT, 5% glycerol, 10°C; agarose gel 1.3% in 0.5x TBE; conditions: protein: recombinant;recombinant; tags: His (pET28a);His (pET28a); copies: 1;1; label: 5' fluorescein (FITC) on forward strand; blunt
[3] = biological target: T1, TRβ1 DBD-LBD (TR DL, TRβ1ΔAB);RXRα1 …; experiment: fluorescence anisotropy; T3; Hill n 3.7±1; text refers to previous studies [36],[37] but listed in this paper's Table 1 and Fig. 2; Fluorescence anisotropy: 10 nM DNA, 20 mM Hepes pH 8.0, 50 mM NaCl, 1 mM MgCl2, 3 mM DTT, 5% glycerol, 10°C; agarose gel 1.3% in 0.5x TBE; conditions: protein: recombinant;recombinant; tags: His (pET28a);His (pET28a); copies: 1;1; label: 5' fluorescein (FITC) on forward strand; blunt

T1 sequence (P10828 102-461, stated change not applied, chain 1 of 2): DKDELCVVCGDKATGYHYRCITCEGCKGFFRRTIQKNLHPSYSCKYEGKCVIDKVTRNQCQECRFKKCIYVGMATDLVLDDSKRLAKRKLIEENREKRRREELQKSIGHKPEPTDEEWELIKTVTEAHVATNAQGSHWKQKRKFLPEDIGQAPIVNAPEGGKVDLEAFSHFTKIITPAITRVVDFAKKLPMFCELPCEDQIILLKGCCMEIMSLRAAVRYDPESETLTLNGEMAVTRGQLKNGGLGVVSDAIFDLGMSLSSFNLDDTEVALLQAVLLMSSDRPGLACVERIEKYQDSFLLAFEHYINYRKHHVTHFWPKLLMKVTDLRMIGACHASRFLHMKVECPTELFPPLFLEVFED
T1 sequence (P19793 126-462, stated change not applied, chain 2 of 2): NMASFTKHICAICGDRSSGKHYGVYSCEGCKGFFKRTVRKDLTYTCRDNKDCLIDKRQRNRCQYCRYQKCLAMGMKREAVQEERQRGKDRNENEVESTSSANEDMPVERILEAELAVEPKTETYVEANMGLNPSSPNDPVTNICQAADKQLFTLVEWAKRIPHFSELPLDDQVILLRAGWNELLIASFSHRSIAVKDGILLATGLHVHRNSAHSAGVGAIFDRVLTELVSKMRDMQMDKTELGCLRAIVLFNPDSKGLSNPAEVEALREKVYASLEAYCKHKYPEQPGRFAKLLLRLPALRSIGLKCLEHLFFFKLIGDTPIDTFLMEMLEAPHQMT
Chain of GATA2-Zf;TRβ1 DBD-LBD (TR DL, TRβ1ΔAB) (P23769 291-412, stated change not applied, chain 1 of 2): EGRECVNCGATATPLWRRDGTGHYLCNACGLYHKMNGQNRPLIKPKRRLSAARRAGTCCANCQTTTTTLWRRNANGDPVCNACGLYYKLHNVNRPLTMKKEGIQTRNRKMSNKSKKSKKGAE
Chain of GATA2-Zf;TRβ1 DBD-LBD (TR DL, TRβ1ΔAB) (P10828 102-461, stated change not applied, chain 2 of 2): as the sequence (P10828 102-461, stated change not applied, chain 1 of 2) above

B1: GATA-RE (canonical) (dsDNA)
DNA 1: CACTTGATAACAGAAAGTGATAACTCT
DNA 2: AGAGTTATCACTTTCTGTTATCAAGTG
Kd [1]: 140 ± 29.8 nM

B2: TSH NRE (dsDNA)
DNA 1: TGGGTCACCACAGCATCTGCTCACCAATGCAAAGT
DNA 2: ACTTTGCATTGGTGAGCAGATGCTGTGGTGACCCA
Kd [2]: 720 ± 19 nM

B3: DR4 TRE (dsDNA)
DNA 1: AGTTCAGGTCACAGGAGGTCAGAG
DNA 2: CTCTGACCTCCTGTGACCTGAACT
Kd [3]: 39.4 ± 2.2 nM

B4: TSH GATA-RE (dsDNA)
DNA 1: TCAATAGATGCTTTTCAGATAAGAA
DNA 2: TTCTTATCTGAAAAGCATCTATTGA
Kd [1]: 38.6 ± 7.9 nM
